Drawing on article PMC6166021, this text covers binding for two sequences.

This data set concerns T1, NtcA (His6-tagged) (Nostoc sp. PCC 7120), ORF:1390dea6.
T1 sequence: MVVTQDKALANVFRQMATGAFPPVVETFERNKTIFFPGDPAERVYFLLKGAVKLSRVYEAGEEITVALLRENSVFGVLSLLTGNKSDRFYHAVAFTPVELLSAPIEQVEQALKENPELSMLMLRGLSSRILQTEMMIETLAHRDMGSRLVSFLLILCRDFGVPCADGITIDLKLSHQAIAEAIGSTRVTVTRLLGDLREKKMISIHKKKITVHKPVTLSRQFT
Briefly: EMSA. To be noted: EMSA as in Muro-Pastor et al. 1999; buffer, salt, pH and temperature not given in the material. On the technique in general: In EMSA bound probe runs differently from free probe, usually more slowly.

With “ATCGATACTCTCGCAACAACGAAAGAATAGTAGTTTCATCAACCTCTAAACCTTTATATCTCCATACCCCTACACCCTAAACCCATATTTTGAGGGTATAGCGTAAGAACCCTACACCCGTCAGCCTCTTCTCCCCCCATTGACATTTTTGAAATATTCTGAAAGATAGAGGCTGATTACCTCCGGGTATATCTTTTTTCGGTAAATTTTTTCAAAAAAACTGTGTTGCCTGTATGAATATTGTTAAGAAAAGTTGCCCGTTGCATTTTGGGAATACGCAGCCGGGTTTTAACTC (double strand) [nsrR1 promoter fragment, mutated NtcA site (TAC to ATG)]”, the binding result is “no binding”.

On to “ATCGATACTCTCGCAACAACGAAAGAATAGTAGTTTCATCAACCTCTAAACCTTTATATCTCCATACCCCTACACCCTAAACCCATATTTTGAGGGTATAGCGTAAGAACCCTACACCCGTCAGCCTCTTCTCCCCCCATTGACATTTTTGAAATATTCTGAAAGATAGAGGCTGATTACCTCCGGGTATATCTTTTTTCGGTAAATTTTTTCAAAAAAACTGTGTTGCCTGTTACAATATTGTTAAGAAAAGTTGCCCGTTGCATTTTGGGAATACGCAGCCGGGTTTTAACTC (double strand) [nsrR1 promoter fragment WT (-239 to +50)]”, for which the binding entry is “binds”.
